First the molecules themselves.
T1: human FAPα (Fibroblast activation protein alpha), cell surface expressed (human, UniProt Q12884 1-760)
T1 construct: Endogenous on human lung fibroblasts and CAFs
T1 sequence: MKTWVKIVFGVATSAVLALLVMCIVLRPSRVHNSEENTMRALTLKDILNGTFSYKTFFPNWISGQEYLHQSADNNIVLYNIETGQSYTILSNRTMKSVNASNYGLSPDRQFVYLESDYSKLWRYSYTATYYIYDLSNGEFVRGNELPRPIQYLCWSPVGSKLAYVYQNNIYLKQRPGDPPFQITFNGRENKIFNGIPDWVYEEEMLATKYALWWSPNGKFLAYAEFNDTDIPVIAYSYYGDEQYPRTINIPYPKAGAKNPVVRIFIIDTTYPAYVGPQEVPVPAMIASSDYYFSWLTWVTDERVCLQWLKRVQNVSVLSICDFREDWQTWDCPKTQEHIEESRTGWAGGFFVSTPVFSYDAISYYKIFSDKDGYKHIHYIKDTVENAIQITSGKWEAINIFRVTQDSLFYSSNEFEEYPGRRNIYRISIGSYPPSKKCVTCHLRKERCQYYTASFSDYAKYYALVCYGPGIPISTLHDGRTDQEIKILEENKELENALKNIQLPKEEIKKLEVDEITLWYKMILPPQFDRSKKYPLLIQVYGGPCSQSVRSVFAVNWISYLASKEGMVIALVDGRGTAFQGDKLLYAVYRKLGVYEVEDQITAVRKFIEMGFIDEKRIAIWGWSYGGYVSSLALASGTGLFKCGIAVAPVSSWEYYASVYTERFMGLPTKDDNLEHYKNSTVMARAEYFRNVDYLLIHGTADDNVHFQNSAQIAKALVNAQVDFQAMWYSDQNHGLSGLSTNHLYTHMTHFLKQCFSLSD

B1: BisG1-FAPα-FERL/DR4-FERR (bispecific antibody, human IgG1, kappa, lambda)
heavy 1: EVQLLESGGGLVQPGGSPRLSCEASGFTFSSYALSWVRQAPGKGLEWVSAISGSGGGRYYADSVKGRFTISRDNSKNTLFLQMNSLRAEDTAVYYCAKEGYSSSGTYWDHWGQGTLVTVSSASTKGPSVFPLAPSSKSTSGGTAALGCLVKDYFPEPVTVSWNSGALTSGVHTFPAVLQSSGLYSLSSVVTVPSSSLGTQTYICNVNHKPSNTKVDKRVEPKSCDKTHTCPPCPAPEFERGPSVFLFPPKPKDTLMISRTPEVTCVVVDVSHEDPEVKFNWYVDGVEVHNAKTKPREEQYNSTYRVVSVLTVLHQDWLNGKEYKCKVSNKALPAPIEKTISKAKGQPREPQVYTLPPSREEMTKNQVSLTCLVKGFYPSDIAVEWESNGQPENNYKTTPPVLDSDGSFLLYSKLTVDKSRWQQGNVFSCSVMHEALHNHYTQKSLSLSPG
light 1: AIQMTQSPSSVSASVGDRVTITCRASQGVSSWLAWYQQKPGRAPKLLIYVASTLQSGVPSRFSGSGSGTDFTLTINSLQPEDFATYYCQQANSFPPTFGQGTRLEMKRTVAAPSVFIFPPSDEQLKSGTASVVCLLNNFYPREAKVQWKVDNALQSGNSQESVTEQDSKDSTYSLSSTLTLSKADYEKHKVYACEVTHQGLSSPVTKSFNRGEC
heavy 2: QVQLQESGPGLVKPSGTLSLTCAVSGGSISSYSWWSWIRQPPGKGLEWIGELYHSGSTNYNPSLKSRVTISVDKSKNQFSLKLRSVTAADTAVYYCVRGVATIDYWGQGTLVTVSSASTKGPSVFPLAPSSKSTSGGTAALGCLVKDYFPEPVTVSWNSGALTSGVHTFPAVLQSSGLYSLSSVVTVPSSSLGTQTYICNVNHKPSNTKVDKRVEPKSCDKTHTCPPCPAPEFERGPSVFLFPPKPKDTLMISRTPEVTCVVVDVSHEDPEVKFNWYVDGVEVHNAKTKPREEQYNSTYRVVSVLTVLHQDWLNGKEYKCKVSNKALPAPIEKTISKAKGQPREPQVYTLPPSREEMTKNQVSLTCLVKGFYPSDIAVEWESNGQPENNYKTTPPVLDSDGSFFLYSRLTVDKSRWQQGNVFSCSVMHEALHNHYTQKSLSLSPG
light 2: QSALTQPPSASGSPGQSVTISCTGTSSDVGGYNFVSWYQQDPGKAPKLLIYEVTKRPSGVPDRFSGSKSGNTASLTVSGLQAEDEADYYCSSYAGSNNVMFGGGTKLTVLGQPKAAPSVTLFPPSSEELQANKATLVCLISDFYPGAVTVAWKADSSPVKAGVETTTPSKQSNNKYAASSYLSLTPEQWKSHRSYSCQVTHEGSTVEKTVAPTECS
notes: Human IgG1 bispecific made by controlled Fab-arm exchange of IgG1-FAPα-FERL and IgG1-DR4-FERR; monovalent for FAPα and for DR4; also called GEN1057
B2: IgG1-FAPα-FERL (antibody)
heavy: B1 heavy 1
light: B1 light 1
notes: Bivalent monoclonal IgG1 kappa
B3: BisG1-FAPα-FERL/b12-FERR (bispecific antibody, human IgG1, kappa)
heavy 1: B1 heavy 1
light 1: B1 light 1
heavy 2: QVQLVQSGAEVKKPGASVKVSCQASGYRFSNFVIHWVRQAPGQRFEWMGWINPYNGNKEFSAKFQDRVTFTADTSANTAYMELRSLRSADTAVYYCARVGPYSWDDSPQDNYYMDVWGKGTTVIVSSASTKGPSVFPLAPSSKSTSGGTAALGCLVKDYFPEPVTVSWNSGALTSGVHTFPAVLQSSGLYSLSSVVTVPSSSLGTQTYICNVNHKPSNTKVDKRVEPKSCDKTHTCPPCPAPEFERGPSVFLFPPKPKDTLMISRTPEVTCVVVDVSHEDPEVKFNWYVDGVEVHNAKTKPREEQYNSTYRVVSVLTVLHQDWLNGKEYKCKVSNKALPAPIEKTISKAKGQPREPQVYTLPPSREEMTKNQVSLTCLVKGFYPSDIAVEWESNGQPENNYKTTPPVLDSDGSFFLYSRLTVDKSRWQQGNVFSCSVMHEALHNHYTQKSLSLSPG
light 2: EIVLTQSPGTLSLSPGERATFSCRSSHSIRSRRVAWYQHKPGQAPRLVIHGVSNRASGISDRFSGSGSGTDFTLTITRVEPEDFALYYCQVYGASSYTFGQGTKLERKRTVAAPSVFIFPPSDEQLKSGTASVVCLLNNFYPREAKVQWKVDNALQSGNSQESVTEQDSKDSTYSLSSTLTLSKADYEKHKVYACEVTHQGLSSPVTKSFNRGEC

Data on three molecules can be found in patent US20250002610A1 (Genmab, published 2025).

The target of the assay is T1, human FAPα (Fibroblast activation …). The assay is described as follows: flow cytometry, human lung fibroblasts, n = 2. Here is the method: Binding of bispecific or monoclonal antibodies carrying the anti-FAPα arm derived from IgG1-FAPα-FERL (BisG1-FAPα-FERL/DR4-FERR, BisG1-FAPα-FERL/b12-FERR, and IgG1-FAPα-FERL) to cell surface expressed human FAPα was analyzed by flow cytometry using human lung fibroblasts and CAFs, which endogenously express FAPα. BisG1-b12-FERL/b12-FERR was used as negative control.
Human lung fibroblasts and CAFs (50,000 cells/well) were seeded in 96-Well round bottom plates (Greiner Bio-one, Cat #650101). Antibody dilutions were prepared using fluorescence-activated cell sorting (FACS) buffer, consisting of phosphate buffer saline (PBS, Lonza, Cat #BE17-517Q)+1% Bovine Serum Albumin (BSA, Roche, Cat #10735086001)+0.02% Sodium Azide (Bio-World, Cat #41920044-3). Plates were centrifuged, supernatant was removed, cells were resuspended in 50 μL of human Fc Block (BD, Cat #564220, diluted 1:100 in FACS buffer) and 50 μL of viability stain TO-PRO-3 Iodide (Thermo Fisher, Cat #T3605, diluted 1: 25,000 in FACS buffer), and incubated for 15 min at 4° C. Plates were washed three times with FACS buffer. Plates were centrifuged, supernatant was removed, cells were resuspended in 50 μL of antibody dilutions (concentration range 90-0.0005 μg/mL, three-fold dilution steps using FACS buffer) of BisG1-FAPα-FERL/DR4-FERR, BisG1-FAPα-FERL/b12-FERR, BisG1-b12-FERL/b12-FERR (top six concentrations only for CAFs culture) or IgG1-FAPα-FERL (top four concentrations only for CAFs culture) and incubated for 30 min at 4° C. Cells were washed three times with FACS buffer and resuspended in 50 μL of Fluorescein isothiocyanate (FITC)-labeled polyclonal antibody goat anti-mouse IgG1 (Jackson Immuno Research, Cat #109-096-097, diluted 1:100 in FACS buffer). […] Antibody binding to viable cells (TO-PRO-3 negative) was analyzed by flow cytometry on a FACSCelesta™ (BD biosciences) and data were processed using FlowJo_v10.8.1 (FlowJo LLC). Geomean fluorescence intensity, gMFI, was determined and visualized using GraphPad Prism.
Background: In flow cytometry, cells or beads pass a laser one at a time.
The molecule B1 returned an EC50 of 0.047 µg/mL.

As for B2, the EC50 was found to be 0.006 µg/mL.

In turn, B3 came in with an EC50 of 0.034 µg/mL.

A word on the EC50: it is the midpoint of the concentration-response curve.
